Measurements: a protein production outcome set (Wang et al. 2014)

Assay: label from the status in PepcDB records

With “MLLTLEQELFTQFGYAAFKPGQKEVITNLLDGMNTLAVLPTGTGKSLCYQFVGQKLEGLTVIVSPLLSLMEDQMRQLQRQGIKGAVALNSTLQYSEKRYILAKMFQYDYLFLSPEMLLQQEVLSVLQRQKIALFVVDEAHCVYQWGVDFRPEYSKLDLVQKQLDFPLTLALTATATPVVQHAIIKQLFSHGSYQEVLSSVNRKNIGLFVKETSEKEEVLLDYLSKTAGKIIIYCATRNKTEQISQLIQAKTSFKVAYYHGGLEASERSRLQEQFIDNQIDILCATNAFGMGIDKPDVRGVIHFDLPDSLENYLQEIGRAGRDGQKSWALLLYKKGDEFIHRFFLEETRANRATLKSLIEGEEQAGLLENATELQQKWVQGYLAKDYSFEELEHRLEEKEKDRQAQLRGMLTYIETTTCRRTLIQTYFQEPIVKQSPETCCDNCALFFDIYQDSIVKSNKTSNQNEEGWRSKFLKLFKERD” as the sequence, how does the protein production read?
Its protein production is “failed”.

With “MLMKVAEFERLFRQAAGLDVDKNDLKRVSDFLRNKLYDLLAVAERNAKYNGRDLIFEPDLPIAKGLQETLQEFRRMDTALELKPVLDALAALPPLDLEVAEDVRNLLPELAGALVVAYARVLKELDPALKNPQTEHHERAERVFNLLL” as the sequence, how does the protein production read?
The protein production was “not failed”.

For “MLMMLKSLRVNRILKLLLLAIFSSFMIIACGDRLTQYTVSQKISPSTECQVIQHQVGETQVCGQPQKIVALGPNVLEILLALDVQPVGFADHVPLHQGNYDNPSQQIPYLGERVTGELINLGLAYTPSIEALLKIKPDLIIGNELNRSQYEMLSKIAPTLLFPRFDAQPNLLAISKILGRSEKAKKILADSDQRLAIAQKALSDIVANHPQVLMLVSLGQSISEQLRFPRRDSFCDSLVTNLGFKLMSPSSLVPADKSVPPPLSIETLPQFNSADSIILLGANFSQVQLSDDKYFEPQMQKLKQQWSENAIAQSLTASKEGRVYFIPAYLCLGLPGPIGTELYLQELQKQLLSPQGK”, which protein production is on record?
The protein production was “failed”.

With “MLMNLPEILKNQKARARKFKPVKMSKRTELWYRQQLKQFVKMMTNDVERALQQPQGSFFMDDAKGFQAISAKALMKVLEKYEKSDRTSQAENIANGFVSRGDAQNHAEVSTNLKNQTGIDLSAYLRNSPNITEKVNALTAGNIQLIKSIRSQYLDKVQNAVMQAMVRGSLNKDLAAQIKDLGKTTEKRAMFIARDQSSKLNAALTQARHEEVGIKKYMWSASLDERVRESHAEKDGQIFEYANPPADTDHPGHDFNCRCVQIPVLDNNEQIVKNSPIVSQQEKQQMRSEWSDDFPDTIIDRKLGDATSHPLYENAKKGSIEDAYQLAKDLVTDDAVNKLKQLVGNKNAILIPVHAEEAVGQNMIPVAIATVLSKKLHIPVDLSIVQATKVSRTGGDGWHRLVYSPAFDGIVPKDKYAIILDDTQTQGGTLASLKGYIIKEKLLHLML” as the sequence, how does the protein production read?
Its protein production is “failed”.

With “MLMRTTRKISITDYGVYYYKTCRSIFDLLHESAEVASNVIHNPEGVLNISMPRSFGIFGFLPTLEKFYRIHPKIRVDVSISDSLVDFSENRFDAAVRLGVLSDSSLVARPLRPYKLVLCASPAYLARKGRPATPKDLIVHDCIATYFDEYRTAWNTLQNTWEFLCADGEFIKVSVPARMQVNDAQGVCIMVLSGQGIALLPEIIVSAHLTEGRLIELLPDYQIPSRPMSLVYRKNSLMPFKLKAFIGFLMDEFS” as the sequence, how does the protein production read?
Its protein production is “failed”.

With “MLNLQRMSLFIAVVDSGSFTAAAAASGQTKAVVSFNIRQLEKELGVTLLLRSTRRLTLTDAGVLFYQKGVNLLNAAKNLQDEVRASHSGLGGELRITTTSEFGEQVVIPVLAQFSQRHPDLRIRHMSSSHHADLIAERFDVAIRLGSLADSRYRAALISRFTILPVAAPQWLARNPVSSLESLAQAEWIIHERLPTPLRWTVTNNHGQHSRLEISKAGKISVDSARSLMAFALAGSGVALLPQWLVNTALEDGTLIHLLPDYHFPRQGIYAVYPDARHVSTKVRAFIDFLRSQWDCGEHAPSS” as the sequence, how does the protein production read?
Its protein production is “failed”.

For “MLNQFPKLRLTPFTTGIVAIFLFSLVIRFWNLGQFNQLVFDEVYYAKFASDYWLGNDFFPSHPPLSHYLIALAMGLGQVFPVNPEQVNDLTGAVRSTWSYRWLNALTGATIPLLLGAIAYLLTQRRLVTLLTMGLVALDGLFLVESRYALNNIYLVFFGLLGQALVLWHLRQEKLWQLILGGISLACAGSVKWNGFAFLLGVYLLWAIAWVKPFFNQGWTKGERQANSLQLLDRDGENNQGFLSRWLIISPLKFAIWLVLVPVITYSVIWIPHLLMNGEYASLEGFWRIQRETWQYHRRVGNSPDIHPYCSPWYSWLLMARPIAYFYQKSGQFGLINDVHAMANPILLWFSTGAMALLTGTVIWQKIRQFSSQTINAPLRGITLYIEVNYAVNLLPWLGISRCTFFYHYLPAYAFSILALALILETLLDSPRHSHNVIAWAVLTLVAIAFWYWLPVFLGLPLTPRGFALRMLFPSWI”, which protein production is on record?
Its protein production is “failed”.

With “MLNSRRIVVVLPAYNAEKTLEMTYAEIPFEHVDHVLLVDDASRDRTAQVAERLGIKTIVHDRNKGYGANQKTCYRAALDLGADIVIMVHPDYQYTPKLITAMAAMIAYGEFDAVLGSRILGIGALKGGMPLYKYVANRVLTLVENLLLSHKLSEYHTGYRAFSRQVLEQLPLDANGDDFVFDNQMLAQIIWHGYRIGELSCPTKYFEDASSINFRRSVIYGLGVLGTALEFRLARMGLIRSGRFTPRNDQAAAQLEHHHHHH” as the sequence, how does the protein production read?
The protein production was “not failed”.

For “MLNTSDIGKVFPSVTAVVEKGRLRFFAKAIGENNPIYTDEAAAKDAGYESLPMPPTFFFSLKMDVPNPFENYEKVGASLAKILHANQAFVYHQSVVAGDSLTFESHIADIYDKKAGALEFLVEKTKVSNQRGQHVADMTTTLVVRNLEHHHHHH”, which protein production is on record?
The protein production was “failed”.

With “MLPADGIVCFPGQTWEKVLSKVKKAVVFMDDRCSESLHWNGGAALLFEAGARNIKQFSSFEAGAQNEPKAVFVVSTVLKGRTADIIKDIISLSHFQYCVVFTTVPHSIHLLANNVNADLEGNPVFEQFEEKLCEWMGDMNYTAEVMHAPVVFAPLTEHLHLLPAFSNLFPLLDVDLESINEKRPEKKRFGSLMDMDVHSLPPGLQIQIKTLALTLNGLFEFISTREESFSVGPMSRLIATELANLPQAKNRRKTAPNKASVVFVDRTLDLTGAVGHHGDNLAEKILSVLPQLPGHVTDVQVDMLELTHLKPTTDTKGILAPGCLAQNQSATAKLLWETMLVAKQKEAVIEVRRQLVEAASKENLPIKMSLGRVTAEQLCSYVQLFRDSWGALESHSGVLQLGLAAAQALRHPALQRWDACLAFERLLLQALGDSDLAGVLKQLLPLIKSSESGTGSDLSMDDLLVLLVYVYSVAKEACSGGSEEEKQVEKVEQELIGALTLRLTRETTLSPLVQEVTGVSCPEELTMECAHSVLESMFGTLRGVARARDHLKNFSSVFTPGDGAHQDQHRYILILMIQDQHQ” as the sequence, how does the protein production read?
Its protein production is “failed”.

With “MLPFANYYISSPSVSEKNAINNNVNKRRKKKRAMMVYGGGGGGDDLAVVKAAAWAWYLRKEGKPIMREFDVTRAQRIPRPSRYKIEATKNMILSENRVLAENRVSSTKSPLWYTNYQFRGDQETYYSRLLDTYETKNISKRLNIDDSSFSTSLSSVLKHNGDDHHNHNRNDDYGFDDHGLLKKRNGSDSNTTTRSKTNNDKSYNGGFMKKVSKRSLWKGMIVMGPGSTVCGRSDDVASQAGRRTVKVAVAAEALVRSAASGSGKTQSGHC” as the sequence, how does the protein production read?
The protein production was “failed”.

Which protein production does the source give for “MLPNLNRIPQVEQYVLDYLDDLQCQHFEGDIATNYADRLSLATDNSVYQQLPQAILFPKTVADIVRITKLANLPEYQSISFTPRGGGTGTNGQSINNNIIVDLSRHMTA” here?
The protein production was “failed”.

Which protein production does the source give for “MLPPYNYMDNGTLKGISIDLLEAITEKMGKKVTREEIHLVSWTEGYQAALTRNNTVLFVTARTPEREQSFKWVGPIYSDKYVLFAKRDPGVTIDGPEDLKEYRIGVISDDLEHHHHHH” here?
Its protein production is “failed”.

For “MLQAGTKKFLREYGSTCAPLFLALGVCLICCLPAACPKENFIDENAISVSRVPVITGMLGELHMDTRISQYTRVVRGRRSVGSESIAVYVNAAFESSVVLANHLIYVLREKENMACDTNFYFFNDTSKDWPIPDSFVRAAIVINVTSFHTNNLCFNVFGANGMQPNQDLFNLAVAIAEKWRFNIDVLCQNPYISFSTSRPIYEHYFLALQTALVAPLRYQPWYKMRSRGISLLAISTEKSERRTKSSYGYNMAAAHEQLIATLSYLHERFHHSTSVWIPLSVDQYVEYDVIQFATILFVASLLSTCYSIYEVEGFSFSPCAALVSATGLAALVSTLNFGTAGFFVSSGVLTVGLGAFSWDMSWGAINAVVLCLLIILQPVAGLVMGFGATLQLQFIHVRCRKWHVLLIGAILSWIVLVALTEVMKAKLFDTETTAGVYFSFFLYPNALWISSRLIRSTLGA”, which protein production is on record?
Its protein production is “failed”.

With “MLQGKVSVIVPAYNAARLLERCVRSITGQTYPALEVIVVDDGSKDDTGKIADQLAAEDSRIRVVHKTNGGVSAARNDALKLVEGEWITFVDSDDYLEPDFLRSLLDGEVADLVIGGYHTVGANEIPSANYPTDTAHSPEAIKRALEARLTDMTFLCPWGKLFRTSLVRSLRLIFNTEMKVGEDVVFVWSYLAHCSSLAFKQGQGYDYYTEPGADFKYALDETVSLQTIERILGVLDGLKRNFGMDTEHARCHVLNYYIWLFKLYVNRNYLLRDLARMKNFFYYPLILDYYKTYRRTSKDKLLVYLLLKLRLSGVLYLMIKLYYLEHHHHHH” as the sequence, how does the protein production read?
Its protein production is “not failed”.

With “MLQLTRVSRLMNIHCGALMNLKQQYQTSLITDALLHSLQTHSVCTTPSETIDSALNSDGMDRQWMSFFYLPELNSTTVNKIKSILSSFTEVGYIEIDQQTHHLAIYHDGPITPIEKNLEKQGIDVVFQQTQANYIPEPIDWKQIKKRHQILSWLFSINLIMLMVTFFTGLIASSTALIALALIIMSDVMIYAMTLYGIHEKQIGLYKFTRVGLYLQISLSLLLILAVIFQSVLQHQPLAQLIILVAALAFFTMLINMYLLIQTQQERPDLLNFRQWFSFYDVMFSFAVIVAGICCLLFDSNWPDITITTLMVFFLLDRSRRVFKKKTSFVVQ” as the sequence, how does the protein production read?
Its protein production is “failed”.

With “MLRGILWDMDGTLVDSEGIWAQATFAMSTEMGRRLTAAQQRETVGSSFNFTVSLCASNAGIELDSEAKNYWQSFMSHYVTEKFDSSLLPNPGIKEVLDSCRNAEIPMAIATNTIRSIANHSIGAVGIEYFKATVCGDEVANPKPAPDVYLKGAQALGVPPEGCIVFEDSKSGMLGGLAAGCIVISVVDHLNNQPLPEGVVPLSRLHGSADFRGVSAEEIMQWYATLSPNAQ” as the sequence, how does the protein production read?
The protein production was “failed”.

For “MLRGVAALVVYKGKPALAEEKGGRLELTLEGGARQRVRPKDVLFLHPGPASLDLKVPEGEEEAAWELLEGQTVSLRELAELVYGAYTPEAALGAYLLAQKGERFVLEGEGVRARTREELLALQEAERKRAERERAFQEALKRLKEGSPAPEDRPLLAEVEALARGERKESPVLRALNLPETPEAAHAFLLRLGLWQRENPHPRRLGLPLQPPDLPVPPLPEEDRVDLTHLPAFAIDDEGSQDPDDAVFAEKVEGGFRLFVHVADVAALVPPKSPLDEEALRRGANLYLPEGTVPMLPPAVTEALGLGLREVSPALTFELWVSEEGELLEERVYPSWVRVTRLTYREALGVEALRPLEALAEAFRAKRLAAGALEIALPEVKVRVEGEEVRITPLPPYPSRVWVREAMLLAGYAAAHLAVREGLPFPFATQEAPARRVEGEGLAAMWEQRKALKRAQLKAVPAPHKGLGLPLYAQVTSPLRRYLDLVAHQQLRAWLKGERPLSQAEVLERVGAAEAVADLVREAERKSKLHWTLLHLEAKGYEGPGVLVERRGGQGVFLLPELGLTAQVALPKALPLNAEARLRFLEADLPALEARFALV”, which protein production is on record?
Its protein production is “failed”.
